Experimental data published in patent US20220363718A1 (Bicycle, published 2022).
Blank lines part the entries; values can stand above or below the binder they belong to.

Columns and labels:
[1] = biological target: T1, Biotinylated human TSLP (human, biotinylated); assay: SPR, biotinylated hTSLP on streptavidin chip; Example 11, Ac-(SEQ ID NO: 9)
T1 construct: also called hTSLP; thymic stromal lymphopoietin

[2] = biological target: T1, Biotinylated human TSLP; assay: SPR, biotinylated hTSLP on streptavidin chip; Example 14, Ac-(SEQ ID NO: 12)
[3] = biological target: T1, Biotinylated human TSLP; assay: SPR, biotinylated hTSLP on streptavidin chip; Example 153, Ac-(SEQ ID NO: 112)
[4] = biological target: T1, Biotinylated human TSLP; assay: SPR, biotinylated hTSLP on streptavidin chip; Example 4, Ac-(SEQ ID NO: 4)
[5] = biological target: T1, Biotinylated human TSLP; assay: SPR, biotinylated hTSLP on streptavidin chip; Example 154, Ac-(SEQ ID NO: 113)
[6] = biological target: T1, Biotinylated human TSLP; assay: SPR, biotinylated hTSLP on streptavidin chip; Example 158, Ac-(SEQ ID NO: 116)
[7] = biological target: T1, Biotinylated human TSLP; assay: SPR, biotinylated hTSLP on streptavidin chip; Example 148, Ac-(SEQ ID NO: 107)
[8] = biological target: T1, Biotinylated human TSLP; assay: SPR, biotinylated hTSLP on streptavidin chip; Example 146, Ac-(SEQ ID NO: 105)
[9] = biological target: T1, Biotinylated human TSLP; assay: SPR, biotinylated hTSLP on streptavidin chip; Example 157, Ac-(SEQ ID NO: 115)
[10] = biological target: T1, Biotinylated human TSLP; assay: SPR, biotinylated hTSLP on streptavidin chip; Example 160, Ac-(SEQ ID NO: 118)
[11] = biological target: T1, Biotinylated human TSLP; assay: SPR, biotinylated hTSLP on streptavidin chip; Example 8, Ac-(SEQ ID NO: 6)

T1 sequence (chain, as listed by the source limits assumed): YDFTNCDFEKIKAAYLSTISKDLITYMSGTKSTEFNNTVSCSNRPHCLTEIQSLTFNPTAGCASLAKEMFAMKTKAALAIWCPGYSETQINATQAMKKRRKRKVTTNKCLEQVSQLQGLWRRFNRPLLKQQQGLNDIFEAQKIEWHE

B1: Example 11 (peptide)
peptide: CQWLEDCWRGXC
modifications: not fully specified; N-term acetyl; CQWLEDCWRG[3,4diClPhe]C as printed; 3 Cys on TATA
- Kd [1]: 5.8 nM

B2: Example 14 (peptide)
peptide: CQWLEDCWRGXC
modifications: N-term acetyl; CQWLEDCWRG[4-ClPhe]C as printed; 3 Cys on TATA
- Kd [2]: 6 nM

B4: Example 4 (peptide)
peptide: CQWXEDCWRGXC
modifications: not fully specified; N-term acetyl; CQW[tBuA]EDCWRG[4-FPhe]C as printed; 3 Cys on TATA
- Kd [4]: 2.7 nM

B8: Example 146 (peptide)
peptide: CQWLEDCWRGXC
modifications: N-term acetyl; CQWLEDCWRG[2PyrA]C as printed; 3 Cys on TATA
- Kd [8]: 910 nM

B11: Example 8 (peptide)
peptide: CQWLEDCWRGXC
modifications: not fully specified; N-term acetyl; CQWLEDCWRG[4F3ClPhe]C as printed; 3 Cys on TATA
- Kd [11]: 4 nM

Next, values leading:

- Kd [3]: 2700 nM
B3: Example 153 (peptide)
peptide: CQWLEDCWRGXC
modifications: not fully specified; N-term acetyl; CQWLEDCWRG[PentFPhe]C as printed; 3 Cys on TATA

- Kd [5]: 2900 nM
B5: Example 154 (peptide)
peptide: CQWXEDCWRGXC
modifications: not fully specified; N-term acetyl; CQW[LMe]EDCWRG[4-FPhe]C as printed; 3 Cys on TATA

- Kd [6]: 5400 nM
B6: Example 158 (peptide)
peptide: CQWLEDCWRGXC
modifications: not fully specified; N-term acetyl; CQWLEDCWRG[3-PyrA]C as printed; 3 Cys on TATA

- Kd [7]: 1100 nM
B7: Example 148 (peptide)
peptide: CQWLEDCWRGXC
modifications: N-term acetyl; CQWLEDCWRG[BnA]C as printed; 3 Cys on TATA

- Kd [9]: 3900 nM
B9: Example 157 (peptide)
peptide: CQWLEDCWRGXC
modifications: not fully specified; N-term acetyl; CQWLEDCWRG[4-PyrA]C as printed; 3 Cys on TATA

- Kd [10]: 10000 nM
B10: Example 160 (peptide)
peptide: CQWXEDCWRGXC
modifications: not fully specified; N-term acetyl; CQW[4-MenL]EDCWRG[4-FPhe]C as printed; 3 Cys on TATA
